This passage reports Kd results from patent US20200155648A1 (CHILDREN S MEDICAL CENTER, published 2020).

The experiment addresses T1, rhVEGFR1-Fc (R&D Systems, Minneapolis, Minn.) (human, UniProt P17948-2 27-687, limits assumed).
T1 construct: It was captured on plates by an anti-Fc antibody; also called Flt-1; not shown: Fc part of the bought fusion
In words: cell-free plate assay: rhVEGFR1-Fc captured by anti-Fc, VEGF165 titrated, Kd from the double reciprocal plot; heparin level not given. The protocol:
Plates were washed five times with wash buffer (0.05% Tween-20 in PBS, pH 7.2-7.4) the next morning and blocked with blocking buffer (2% bovine serum albumin and 0.05% Tween-20 in PBS) for 1 hour at 37° C. […] Substrate reaction was stopped with 2N sulfuric acid and the signal was visualized with a FLUOstar Omega microplate reader (BMG Labtech, Cary, N.C.) at 450 nm.
All other outcomes were analyzed with analysis of variance.

T1 sequence (P17948 other isoform, or with tags, fused parts or gaps limits assumed): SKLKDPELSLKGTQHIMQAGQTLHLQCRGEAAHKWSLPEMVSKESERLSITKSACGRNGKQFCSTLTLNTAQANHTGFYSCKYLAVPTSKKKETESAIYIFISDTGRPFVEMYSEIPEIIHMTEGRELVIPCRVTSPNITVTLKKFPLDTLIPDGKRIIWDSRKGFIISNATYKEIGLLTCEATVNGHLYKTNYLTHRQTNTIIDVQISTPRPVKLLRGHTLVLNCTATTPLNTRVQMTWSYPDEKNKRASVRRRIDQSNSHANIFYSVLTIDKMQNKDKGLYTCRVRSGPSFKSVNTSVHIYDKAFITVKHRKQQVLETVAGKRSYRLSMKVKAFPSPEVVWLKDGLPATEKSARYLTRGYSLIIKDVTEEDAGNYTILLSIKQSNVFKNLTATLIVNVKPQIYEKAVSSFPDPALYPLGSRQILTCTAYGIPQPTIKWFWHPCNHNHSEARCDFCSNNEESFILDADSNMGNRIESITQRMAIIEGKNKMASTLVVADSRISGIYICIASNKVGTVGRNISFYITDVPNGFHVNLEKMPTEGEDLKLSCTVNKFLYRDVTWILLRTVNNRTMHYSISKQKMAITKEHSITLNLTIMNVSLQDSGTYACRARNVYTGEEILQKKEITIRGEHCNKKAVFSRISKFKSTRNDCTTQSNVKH

B1: rhVEGF-165 (Shire, Lexington, Mass.) (ligand)
chain: APMAEGGGQNHHEVVKFMDVYQRSYCHPIETLVDIFQEYPDEIEYIFKPSCVPLMRCGGCCNDEGLECVPTEESNITMQIMRIKPHQGQHIGEMSFLQHNKCECRPKKDRARQENPCGPCSERRKHLFVQDPQTCKCSCKNTDSRCKARQLELNERTCRCDKPRR
Take B1: the affinity, expressed as Kd, was 8.14 ng/mL.
